Assay results from patent US20080299108A1, “Peptides for Diagnostic and Therapeutic Methods for Celiac Sprue” (priority 2005, published 2008).
Entries after “also recorded” stand apart in the source; their conditions may differ. Where no end group is shown, it is not given here.

Legend:
HLA-DQ2 = molecular target: T1, HLA-DQ2 (Homo sapiens, UniProt P01909+P01920, A45G/A70V/D89A/E106A/E77G/E98D/H199R/L107V/N214S/P84L/P87L/T103K/T109R/T172A/T60S/V78E/V99I/Y58L/Y62S/Y69I/Y79F); test: Peptide exchange assay (HPSEC, fluorescein-conjugated peptides); format: binding; conditions: for DQ2 binding affinity: pH 5 and pH 7; for binding maximum (DQ2 bound peptide as percentage of total peptide): pH 5.5, 37° C., 45 h, 4.7 μM DQ2, 0.18 μM peptide; for maximum occupancy (DQ2 bound peptide): pH 7.3, 45 h
T1 construct: the soluble extracellular domains of the DQ2 α and β chains were co-expressed; Fos leucine zipper, joined through a factor Xa site (C); gliadin peptide […]; Jun leucine zipper, joined through a factor Xa site (C); made in house; host or cells: High Five insect cells, pAcAB3 baculovirus
Method: FIG. 8. Equilibrium occupancy of individual peptides listed in Table 1 in the DQ2 binding pocket, as measured by peptide exchange assays. Measurements were made at (A) pH 5.5 and (B) pH 7.3. 4.7 μM DQ2 was mixed with 0.18 μM fluorescein-conjugated peptide at 37° C. for 45 h, and the abundance of DQ2 bound peptide was calculated as a percentage of total peptide.
DQ2 expression and purification. Soluble DQ2 molecules were expressed and purified as previously described. Briefly, the soluble extracellular domains of the DQ2 α and β chains were co-expressed in High Five insect cells using a pAcAB3 baculovirus expression system, and were affinity-purified using the anti-DQ2 mAb 2.12.E11. […] A complementary Fos/Jun leucine zipper pair was engineered at the C-terminal ends of α and β chains, respectively, with intervening factor Xa proteolysis sites, to increase the heterodimer stability during protein expression.
The concentration of HLA-DQ2 was determined by UV spectrophotometry at 280 nm using the absorption coefficient factor 75,700 cm^−1M^−1 as calculated from the contents of tyrosine, tryptophan and cystine in the DQ2 sequence (22). Prior to use in binding experiments with exogenous ligands, the DQ2-ligand fusion protein was first treated with ˜2% w/w thrombin in pH 7.3 PBS at 0° C. for 2 h.
Peptide exchange assay. For peptide exchange experiments, the DQ2 heterodimer purified as described above was incubated with fluorescein-conjugated ligands in a 25:1 ratio (i.e. 4.7 μM DQ2 with 0.18 μM fluorescent peptide). Incubations were performed at 37° C. in a 1:1 mixture of PBS buffer (10 mM Pi, 150 mM NaCl, pH 7.3, supplemented with 0.02% NaN3) and McIlvaine's citrate-phosphate buffers (pH 5 or pH 7) such that the final pH was either 5.5 or 7.3, respectively. Peptide binding was measured by high performance size exclusion chromatography (HPSEC) (17). 1 μl of reaction mixture was diluted into 14 μl PBS. 12.5 μl of the diluted material was injected onto a BioSep 3000 size exclusion column (Phenomenex), and eluted with PBS buffer at 1 ml/min. The DQ2-peptide complex eluted at 8.5 min, with free peptides emerging […] later. The fluorescence signal was recorded using an in-line Shimadzu RA35 fluorescent detector with excitation wavelength set at 495 nm and emission detection set at 520 nm. Peak areas corresponding to the DQ2-peptide complex and the free peptide were used to calculate the fractional yield of the DQ2-fluoresceinated peptide complex.

[1] = system: rat brush border membrane (BBM) protein; test: Rat brush border membrane (BBM) digestion of gliadin peptides, LC-MS; format: in vitro ADME; conditions: for apparent half time of disappearance of the parent peptide (t1/2): 100 μM peptide, 37° C.
Method: To dissect this complex process, liquid chromatography coupled mass spectroscopy analysis (LC-MS-MS) was utilized to investigate the pathways and associated kinetics of hydrolysis of immunodominant gliadin peptides treated with rat BBM preparations. Because the rodent is an excellent small animal model for human intestinal structure and function, rat BBM was chosen as a suitable model system for these studies.
BBM fractions were prepared from rat small intestinal mucosa as described by Ahnen et al. (1982) J. Biol. Chem. 257, 12129-35. […] No proline aminopeptidase (EC 3.4.11.5) or prolyl endopeptidase activity (PEP, EC 3.4.21.26) activity was detectable (<5 μU/μg). Alkaline phosphatase and sucrase were used as control BBM enzymes with activities of 66 μU/μg and 350 μU/μg, respectively.
BBM fractions were partially purified from the small intestinal mucosa of adult female rats maintained on an ad libitum diet of wheat-based standard rodent chow. Total protein content was determined by a modified method of Lowry with BSA as a standard. Alkaline phosphatase activity was determined with nitrophenyl phosphate. Sucrase activity was measured using a coupled glucose assay.
Proteolysis with the BBM preparation was investigated using the peptide (SEQ ID NO:1) (SEQ ID NO:1) […], a product of chymotryptic digestion of α-9 gliadin (Arentz-Hansen et al. (2000) J. Exp. Med. 191, 603-12). […] It was subjected to BBM digestion, followed by LC-MS-MS analysis. A standard 50 μl digestion mixture contained 100 μM of synthetic peptide, 10 μM tryptophan and Cbz-tryptophan as internal standards, and resuspended BBM preparations with a final protein content of 27 ng/μl and exogenous proteins, as indicated, in phosphate buffered saline. After incubation at 37° C. for the indicated time, the enzymes were inactivated by heating to 95° C. for 3 minutes. The reaction mixtures were analyzed by LC-MS (SpectraSystem, ThermoFinnigan) using a C18 reversed phase column (Vydac 218TP5215, 2.1×150 mm) with water:acetonitrile:formic acid (0.1%):trifluoroacetic acid (0.025%) as the mobile phase (flow: 0.2 ml/min) and a gradient of 10% acetonitrile for 3 minutes, 10-20% for 3 minutes, 20-25% for 21 minutes followed by a 95% wash. Peptide fragments in the mass range of m/z=300-2000 were detected by electrospray ionization mass spectroscopy using a LCQ ion trap, and their identities were confirmed by MSMS fragmentation patterns.

[2] = system: polyclonal T cell line that recognizes all α epitopes; test: T cell proliferation, polyclonal T cell line (FIG. 9A); format: cell-based, human; conditions: paraformaldehyde-fixed DQ2 antigen presenting cells
Method: (§1) FIG. 9A-9B. […] Paraformaldehyde-fixed DQ2 cells were used as antigen presenting cells. (A) Proliferation of a polyclonal T cell line that recognizes all α epitopes. (B) Proliferation of a clonal T cell line that recognizes the αII epitope (peptide 3).
(§2) T cell proliferation assays. The DQ2 homozygous […] cell line (LCL) VAVY cells were irradiated with 12,000 rads of γ-irradiation or fixed with 1% paraformaldehyde for 10 minutes as indicated, and incubated with the appropriate peptides overnight in media containing 10% fetal bovine serum, 2% human serum, penicillin and streptomycin at a cell density of 2×10^6 cells/ml in 96-well plates. The next day, the volume was doubled to yield a cell density of 1×10^6 cells/ml, 50 μl of which was placed into a U-bottom 96-well plate. An equal volume of T-cells (50 μl of 1×10^6 cells/ml) was added to each well, and cells were incubated at 37° C. and 5% CO2 for 48 h, at which point 0.5 μCi/well of [methyl-^3H] thymidine (Amersham, TRK120) was added. […] After thawing, incorporated thymidine was collected on a filter mat (Wallac, 1205-401) using a Tomtec cell harvester, and counted using a Wallac 1205 Betaplate liquid scintillation counter.
(§3) To test this hypothesis, we synthesized the 20-mer peptide 5, and quantitatively compared its ability to bind DQ2 in peptide exchange and dissociation assays. […]

[3] = system: clonal T cell line that recognizes the αII epitope; test: T cell proliferation, clonal T cell line (FIG. 9B); format: cell-based, human; conditions: paraformaldehyde-fixed DQ2 antigen presenting cells
Method: as §1, §2, §3

rat jejunum = test: In vivo intestinal perfusion in intact adult rats; conditions: 15-20 cm segment of jejunum, residence time 20 min
[4] = system: rat small intestinal brush-border membrane (BBM) enzymes; test: Rat BBM digestion of peptides from α2-gliadin (12 ng/μl BBM protein); format: in vitro ADME
Method: BBM fractions were prepared from rat small intestinal mucosa.

[5] = molecular target: 33-mer α2-gliadin peptide (non-deamidated), residues 57-89
[6] = system: pepsin, trypsin, chymotrypsin, elastase and carboxypeptidase
[7] = molecular target: soluble HLA-DQ2 heterodimer (extracellular domains of the DQ2 α and β chains with Fos/Jun leucine zippers), thrombin-treated (human); test: peptide exchange kinetics, HPSEC, pH 7.3
[8] = molecular target: soluble HLA-DQ2 heterodimer (extracellular domains of the DQ2 α and β chains with Fos/Jun leucine zippers), thrombin-treated (human); test: peptide exchange kinetics, HPSEC

## LQLQPFPQPELPYPQPEKPY [Peptide 18, L18K analogue of 20-mer peptide 5]
HLA-DQ2
  DQ2 binding affinity: bound poorly to DQ2

## LQLQPFPQPELPYPQPQLPYPQPQLPYPQPQPF [Peptide 11]
HLA-DQ2
  DQ2 binding affinity: higher affinity for DQ2 than either Q17E (12) or Q24E (13)

## PQPELPYPQ [Peptide 3]
HLA-DQ2
  binding maximum (DQ2 bound peptide as percentage of total peptide): 7%

## LQLQPFPQPEKPYPQPELPY [Peptide 17, L11K analogue of 20-mer peptide 5]
HLA-DQ2
  DQ2 binding affinity: bound poorly to DQ2

## PFPQPELPY [Peptide 2]
HLA-DQ2
  binding maximum (DQ2 bound peptide as percentage of total peptide): less than 1%
  maximum occupancy (DQ2 bound peptide): undetectable

## RRLIEDNEYTARG
[1]; 27 ng/μl rat BBM protein
  clearance of digestive intermediates: cleared completely within one hour
  apparent half time of disappearance of the parent peptide (t1/2): 10 min

## LQLQPFPQPELPYPQPELPYPQPELPYPQPQPF [Peptide 1]
[2]
  T cell stimulatory characteristics: substantially more potent T cell antigens than the minimal αII epitope peptide 3
[3]
  T cell stimulatory capacity: comparable T cell stimulatory capacity that exceeds that of peptide 3
HLA-DQ2; exchange kinetics
  time to half maximal DQ2 occupancy: ~8 h
HLA-DQ2
  maximum occupancy (DQ2 bound peptide): 28%

## LQLQPFPQPELPYPQPQLPYPQPELPYPQPQPF [Peptide 15]
HLA-DQ2
  DQ2 binding affinity: significantly enhances affinity relative to Q10E (11)

## LQLQPFPQPELPYPQPELPY [Peptide 5]
[2]
  T cell stimulatory characteristics: substantially more potent T cell antigens than the minimal αII epitope peptide 3
[3]
  T cell stimulatory capacity: comparable T cell stimulatory capacity that exceeds that of peptide 3
HLA-DQ2
  DQ2 binding affinity: comparable to the 33-mer peptide 1 in all in vitro assays; also recorded: binds to DQ2 equally well as the 33-mer peptide 1

## PQPELPYPQPELPY [Peptide 6]
HLA-DQ2
  DQ2 binding affinity: considerably lower affinity for DQ2 than peptide 5

## QLQPFPQPQLPY
[1]; 27 ng/μl rat BBM protein
  apparent half time of disappearance of the parent peptide (t1/2): 35 min
[1]; BBM plus 6-fold excess activity of exogenous fungal DPP IV
  digestion in the presence of exogenous DPP IV: complete digestion was observed within four hours
Rat jejunum
  fraction of peptide proteolyzed in the perfusion experiment: > 90%

## PQPQLPYPQPQLP
[1]; 27 ng/μl rat BBM protein
  stability toward BBM digestion: highly resistant to further digestion

## WQIPEQSR
[4]
  half-life of disappearance: ~60 min

## LQLQPFPQPELPYPQPELPYPQPQLPYPQPQPF [Peptide 14]
HLA-DQ2
  DQ2 binding affinity: significantly enhances affinity relative to Q10E (11)

## LQLQPFPQPQLPYPQPELPYPQPELPYPQPQPF [Peptide 16]
HLA-DQ2
  DQ2 binding affinity: approximates the 33-mer binding characteristics

B1: human tissue transglutaminase (tTGase) (protein)
chain: AEELVLERCDLELETNGRDHHTADLCREKLVVRRGQPFWLTLHFEGRNYEASVDSLTFSVVTGPAPSQEAGTKARFPLRDAVEEGDWTATVVDQQDCTLSLQLTTPANAPIGLYRLSLEASTGYQGSSFVLGHFILLFNAWCPADAVYLDSEEERQEYVLTQQGFIYQGSAKFIKNIPWNFGQFEDGILDICLILLDVNPKFLKNAGRDCSRRSSPVYVGRVVSGMVNCNDDQGVLLGRWDNNYGDGVSPMSWIGSVDILRRWKNHGCQRVKYGQCWVFAAVACTVLRCLGIPTRVVTNYNSAHDQNSNLLIEYFRNEFGEIQGDKSEMIWNFHCWVESWMTRPDLQPGYEGWQALDPTPQEKSEGTYCCGPVPVRAIKEGDLSTKYDAPFVFAEVNADVVDWIQQDDGSVHKSINRSLIVGLKISTKSVGRDEREDITHTYKYPEGSSEEREAFTRANHLNKLAEKEETGMAMRIRVGQSMNMGSDFDVFAHITNNTAEEYVCRLLLCARTVSYNGILGPECGTKYLLNLNLEPFSEKSVPLCILYEKYRDCLTESNLIKVRALLVEPVINSYLLAERDLYLENPEIKIRILGEPKQKRKLVAEVSLQNPLPVALEGCTFTVEGAGLTEEQKTVEIPDPVEAGEEVKVRMDLLPLHMGLHKLVVNFESDKLKAVKGFRNVIIGPA
[5]
  kcat/KM (deamidation by tTGase): kcat/KM=440 min-1 mM-1

B2: myoglobin: another common dietary protein (protein, UniProt P02144 2-154, looked up)
Myoglobin: GLSDGEWQLVLNVWGKVEADIPGHGQEVLIRLFKGHPETLEKFDKFKHLKSEDEMKASEDLKKHGATVLTALGGILKKKGHHEAEIKPLAQSHATKHKIPVKYLEFISECIIQVLQSKHPGDFGADAQGAMNKALELFRKDMASNYKELGFQG
[6]
  stability toward gastric and pancreatic proteases: rapidly broken down into much smaller products

B3: 33-mer peptide 1 (deamidated 33-mer from α2-gliadin), fluorescein-conjugated (peptide)
peptide: {5(6)‑carboxyfluorescein}-LQLQPFPQPELPYPQPELPYPQPELPYPQPQPF
[7]
  maximum occupancy: 28%
[8]
  time to half maximal DQ2 occupancy: 8 h
